B1: HDV Ribozyme (parent)
chain: GGCCGGCAUGGUCCCAGCCUCCUCGCUGGCGCCGGCUGGGCAACAUUCCGAGGGGACCGUCCCCUCGGUAAUGGCGAAUGGGACCCA

Variants of: B1
Test: self-cleavage, relative activity (ratio to wild type); higher = more cleavage; co-transcriptional

Row | Variant | self-cleavage
1 | G2U G68A | 0.0264
2 | G2U U46C | 0.0213
3 | G2U C18G | 0.0692
4 | G2U G67C | 0.0678
5 | G2U G67A | 0.0602
6 | G2U G67U | 0.0563
7 | G2A U69C | 0.332
8 | G2A U69G | 0.219
9 | G2C G53A | 0.108
10 | C3A | 0.641
11 | G2C G35C | 0.124
12 | G2C G35A | 0.0623
13 | G2C G35U | 0.0747
14 | C3A C7U | 0.188
15 | C3A A8G | 0.578
16 | C3A A8U | 0.269
17 | G2U U69C | 0
18 | G2C G34A | 0.0504
19 | G2C G34U | 0.0966
20 | G2U C13A | 0
21 | G2U C13G | 0
22 | G2A U47A | 0.0314
23 | G2A U9C | 0.113
24 | G2A U9G | 0.192

Row | Variant | self-cleavage
25 | G2C G25A | 0.0528
26 | G2U C36G | 0.185
27 | G2C G80U | 0.0392
28 | G2C G80C | 0.154
29 | C3A C85G | 0.623
30 | G2U A42U | 0.0647
31 | G2C G29U | 0.0494
32 | G2C G29A | 0.155
33 | G2U C19G | 0
34 | G2U C19A | 0.0165
35 | G2U C19U | 0.0155
36 | G2U A83C | 0.0594
37 | G2U A83U | 0.0536
38 | G2U A83G | 0.0815
39 | C3A C32U | 0.119
40 | G2C C19G | 0.102
41 | G2C C19A | 0.106
42 | G2U C62G | 0.136
43 | G2U C62A | 0.0166
44 | C3A C30U | 0.143
45 | C3A C30A | 0.0393
46 | G2C A8U | 0
47 | G2C A8C | 0.0639
48 | G2A G82C | 0.0639

Row | Variant | self-cleavage
49 | G2C G59C | 0.0923
50 | G2C G17A | 0
51 | G2C G17C | 0.0536
52 | C3A A43G | 0.0821
53 | C3A A43U | 0.191
54 | C3A A43C | 0.0504
55 | G2U U65A | 0.02
56 | G2C U47C | 0.102
57 | G2C C14G | 0.0773
58 | C3A C48U | 0.635
59 | C3A C48A | 0.839
60 | G2U A78C | 0.0198
61 | G2U A78U | 0
62 | G2C G28U | 0.014
63 | C3A A77U | 0.224
64 | C3A A77C | 0.171
65 | C3A A77G | 0.313
66 | C3A C61U | 0.554
67 | G2U G54A | 0.0279
68 | G2U G54C | 0.0157
69 | C3A C64U | 0.65
70 | G2C C85U | 0.0287
71 | G2C C85A | 0.0287
72 | G2C C85G | 0.0563

Row | Variant | self-cleavage
73 | G2C A16U | 0.0282
74 | G2C A16G | 0.131
75 | G2U C21G | 0.0594
76 | G2C G55A | 0.0941
77 | G2U U47C | 0
78 | G2U U47A | 0
79 | G2U U47G | 0.119
80 | G2U A43C | 0.0292
81 | G2U A43U | 0.0866
82 | C3A A70U | 0.437
83 | G2U C57A | 0.156
84 | G2C G52A | 0.113
85 | G2U C84U | 0.0604
86 | G2U A51U | 0.0799
87 | G2C A51G | 0.0831
88 | G2U G59U | 0.128
89 | G2U G59A | 0.128
90 | C3A C19U | 0.0134
91 | C3A C19A | 0.0199
92 | C3A C62U | 0.57
93 | C3A C62G | 0.0773
94 | C3A C86A | 0.535
95 | C3A C86U | 0.745
96 | C3A C86G | 0.745

Row | Variant | self-cleavage
97 | C3A G6U | 0.0492
98 | G2C C75G | 0.0314
99 | G2C C75A | 0
100 | G2U A70G | 0.0715
101 | G2U A70C | 0.0373
102 | G2U A70U | 0.0548
103 | G2U G5C | 0
104 | G2C G38A | 0.0747
105 | G2C G38C | 0.0475
106 | G2U C7A | 0.013
107 | G2U C7U | 0.0264
108 | G2C G73A | 0.0252
109 | G2C G73C | 0.106
110 | G2C C41G | 0.103
111 | G2C C41A | 0
112 | G2U | 0.0584
113 | G2C | 0.0584
114 | G2C C4U | 0.475
115 | G2U G74C | 0
116 | C3A C26G | 0.415
117 | G2C G68A | 0.0504
118 | G2C G68C | 0.0244
119 | G2C G68U | 0.0449
120 | G2U U20G | 0.0256

Row | Variant | self-cleavage
121 | G2U C4G | 0.0228
122 | C3A C24U | 0.0755
123 | C3A C24A | 0.0268
124 | G2C U23G | 0.0268
125 | G2C U23A | 0
126 | G2C U69C | 0.175
127 | G2C A87U | 0.0825
128 | G2C A87G | 0.0671
129 | G2C A87C | 0.0523
130 | G2U U23C | 0.112
131 | G2U C24U | 0.0784
132 | G2U C24G | 0.0225
133 | G2C C62U | 0.0841
134 | G2U A16C | 0
135 | G2C G54A | 0.0777
136 | G2C G54U | 0.0723
137 | G2C G5U | 0.145
138 | G2C G5C | 0.237
139 | G2C C13A | 0.0707
140 | G2U G34U | 0.0369
141 | G2U A8U | 0.134
142 | G2U A8G | 0.0272
143 | C3A C14U | 0.697
144 | C3A C14A | 0.313

Row | Variant | self-cleavage
145 | G2C C63A | 0.0213
146 | G2U G28U | 0.0246
147 | G2U C49U | 0.0821
148 | G2U C49G | 0.0329
149 | G2C C57A | 0.086
150 | G2C C64A | 0.0652
151 | G2C C64U | 0.0219
152 | G2C C64G | 0.0804
153 | G2C U9C | 0.128
154 | G2C G67A | 0.0449
155 | G2C C58G | 0.13
156 | G2C C58A | 0
157 | G2U A77G | 0
158 | G2U A77U | 0.0244
159 | G2A U65A | 0.173
160 | G2C U72A | 0.106
161 | G2C G31U | 0.109
162 | G2C G31C | 0.0237
163 | G2U C41G | 0.0119
164 | G2U C41U | 0.0419
165 | G2U G81A | 0
166 | G2C U79G | 0
167 | G2C U79C | 0.101

Source: the RNAGym collection of RNA variant scans (doi:10.7554/elife.80360)
